The source of these data is paper PMC6831621, “Structural Insight Into Chitin Degradation and Thermostability of a Novel Endochitinase From the Glycoside Hydrolase Family 18” (Frontiers in Microbiology, 2019).

B1: Chi23 (Pseudoalteromonas aurantia; G79A) (protein)
chain: MSKTITYYNSGAVPLINASELPYDVVNLAFLSSSSNNPFNLVLSGAIAATESSFTTNTIEAIKVMQHKGQKVLISFGGATMGSNAYRSLSEDTAKLADSLASFVKNNQLDGVDIDYEDTAAFTGQAGYDGAQFLISLTQELRKRLPSPDYIISHAPQPPYLEQGGYMAGYVEVVELVGQEIDWLNVQFYNNPPWSANPDQIVSSYLNYTKLPNMSPEKVIAGFPVTQNDAGSGYMPVQTIINEVIKPIQQQSSLGGIMNWQFSSDHNGDWIKAIAQSLNS
notes: pET22b NdeI/XhoI, His-tagged (C-terminal by primer design), E. coli BL21(DE3); monomer; forward primer encodes MSKTITYYNS, reverse primer encodes AQSLNS at the C-terminus
B2: Chi23 (Pseudoalteromonas aurantia; Q157A) (protein)
chain: MSKTITYYNSGAVPLINASELPYDVVNLAFLSSSSNNPFNLVLSGAIAATESSFTTNTIEAIKVMQHKGQKVLISFGGGTMGSNAYRSLSEDTAKLADSLASFVKNNQLDGVDIDYEDTAAFTGQAGYDGAQFLISLTQELRKRLPSPDYIISHAPAPPYLEQGGYMAGYVEVVELVGQEIDWLNVQFYNNPPWSANPDQIVSSYLNYTKLPNMSPEKVIAGFPVTQNDAGSGYMPVQTIINEVIKPIQQQSSLGGIMNWQFSSDHNGDWIKAIAQSLNS
notes: as for B1
B3: Chi23 (Pseudoalteromonas aurantia; N190A) (protein)
chain: MSKTITYYNSGAVPLINASELPYDVVNLAFLSSSSNNPFNLVLSGAIAATESSFTTNTIEAIKVMQHKGQKVLISFGGGTMGSNAYRSLSEDTAKLADSLASFVKNNQLDGVDIDYEDTAAFTGQAGYDGAQFLISLTQELRKRLPSPDYIISHAPQPPYLEQGGYMAGYVEVVELVGQEIDWLNVQFYANPPWSANPDQIVSSYLNYTKLPNMSPEKVIAGFPVTQNDAGSGYMPVQTIINEVIKPIQQQSSLGGIMNWQFSSDHNGDWIKAIAQSLNS
notes: as for B1
B4: Chi23 (Pseudoalteromonas aurantia; T80A) (protein)
chain: MSKTITYYNSGAVPLINASELPYDVVNLAFLSSSSNNPFNLVLSGAIAATESSFTTNTIEAIKVMQHKGQKVLISFGGGAMGSNAYRSLSEDTAKLADSLASFVKNNQLDGVDIDYEDTAAFTGQAGYDGAQFLISLTQELRKRLPSPDYIISHAPQPPYLEQGGYMAGYVEVVELVGQEIDWLNVQFYNNPPWSANPDQIVSSYLNYTKLPNMSPEKVIAGFPVTQNDAGSGYMPVQTIINEVIKPIQQQSSLGGIMNWQFSSDHNGDWIKAIAQSLNS
notes: as for B1
B5: Chi23 (Pseudoalteromonas aurantia; Q261A) (protein)
chain: MSKTITYYNSGAVPLINASELPYDVVNLAFLSSSSNNPFNLVLSGAIAATESSFTTNTIEAIKVMQHKGQKVLISFGGGTMGSNAYRSLSEDTAKLADSLASFVKNNQLDGVDIDYEDTAAFTGQAGYDGAQFLISLTQELRKRLPSPDYIISHAPQPPYLEQGGYMAGYVEVVELVGQEIDWLNVQFYNNPPWSANPDQIVSSYLNYTKLPNMSPEKVIAGFPVTQNDAGSGYMPVQTIINEVIKPIQQQSSLGGIMNWAFSSDHNGDWIKAIAQSLNS
notes: as for B1
B6: Chi23 (Pseudoalteromonas aurantia; N9A) (protein)
chain: MSKTITYYASGAVPLINASELPYDVVNLAFLSSSSNNPFNLVLSGAIAATESSFTTNTIEAIKVMQHKGQKVLISFGGGTMGSNAYRSLSEDTAKLADSLASFVKNNQLDGVDIDYEDTAAFTGQAGYDGAQFLISLTQELRKRLPSPDYIISHAPQPPYLEQGGYMAGYVEVVELVGQEIDWLNVQFYNNPPWSANPDQIVSSYLNYTKLPNMSPEKVIAGFPVTQNDAGSGYMPVQTIINEVIKPIQQQSSLGGIMNWQFSSDHNGDWIKAIAQSLNS
notes: pET22b NdeI/XhoI, His-tagged (C-terminal by primer design), E. coli BL21(DE3); monomer; forward primer encodes …, reverse primer encodes AQSLNS at the C-terminus
B7: Chi23 (Pseudoalteromonas aurantia) (protein)
chain: MSKTITYYNSGAVPLINASELPYDVVNLAFLSSSSNNPFNLVLSGAIAATESSFTTNTIEAIKVMQHKGQKVLISFGGGTMGSNAYRSLSEDTAKLADSLASFVKNNQLDGVDIDYEDTAAFTGQAGYDGAQFLISLTQELRKRLPSPDYIISHAPQPPYLEQGGYMAGYVEVVELVGQEIDWLNVQFYNNPPWSANPDQIVSSYLNYTKLPNMSPEKVIAGFPVTQNDAGSGYMPVQTIINEVIKPIQQQSSLGGIMNWQFSSDHNGDWIKAIAQSLNS
notes: as for B1
B8: Chi23 (Pseudoalteromonas aurantia; D229A) (protein)
chain: MSKTITYYNSGAVPLINASELPYDVVNLAFLSSSSNNPFNLVLSGAIAATESSFTTNTIEAIKVMQHKGQKVLISFGGGTMGSNAYRSLSEDTAKLADSLASFVKNNQLDGVDIDYEDTAAFTGQAGYDGAQFLISLTQELRKRLPSPDYIISHAPQPPYLEQGGYMAGYVEVVELVGQEIDWLNVQFYNNPPWSANPDQIVSSYLNYTKLPNMSPEKVIAGFPVTQNAAGSGYMPVQTIINEVIKPIQQQSSLGGIMNWQFSSDHNGDWIKAIAQSLNS
notes: as for B1

Substrate in this data set: CC(=O)N[C@H]1[C@H](Oc2ccc3c(C)cc(=O)oc3c2)O[C@H](CO)[C@@H](O[C@@H]2O[C@H](CO)[C@@H](O)[C@H](O)[C@H]2NC(C)=O)[C@@H]1O
Briefly: fluorogenic substrate hydrolysis, Michaelis-Menten non-linear fit. Type of data set: biochemical, Pseudoalteromonas aurantia. Particulars: McIlvaine's buffer pH 5.0, substrate 0.01-0.6 mM, temperature not given for kinetics. The text has this:
fluorogenic substrate hydrolysis, Michaelis-Menten non-linear fit on Chi23
As usually defined, the Km is the concentration of substrate that gives half-maximal velocity. Broadly, the Vmax is the rate approached at saturating substrate. As a reminder, the kcat is the number of substrate molecules converted per active site and unit of time at saturation. For the protein B1, the Km came out at 72.6 ± 6.9 µM, the Vmax is 0.0576 µmol/min/mg and the kcat came out at 0.0295 ± 0.0013 s⁻¹.
The corresponding values for B2 are 104.1 ± 17.5 µM, 0.0044 µmol/min/mg and 0.0022 ± 0.0002 s⁻¹.
On the same counts, the results for B3 are 77.4 ± 16.2 µM, 4e-05 µmol/min/mg and 2e-05 ± 2e-06 s⁻¹.
The corresponding values for B4 are 85.6 ± 7.2 µM, 0.0144 µmol/min/mg and 0.0073 ± 0.0003 s⁻¹.
In the case of B5, the Km worked out at 86.3 ± 6.6 µM, the Vmax was determined as 0.0009 µmol/min/mg and the kcat turned out to be 0.0005 ± 2e-05 s⁻¹.
On the same counts, the results for B6 are 90.1 ± 13.4 µM, 0.0042 µmol/min/mg and 0.0021 ± 0.0002 s⁻¹.
On the same counts, the results for B7 are 64.6 ± 11.7 µM, 0.0107 µmol/min/mg and 0.0054 ± 0.0005 s⁻¹.
On the same counts, the results for B8 are 80.1 ± 6.3 µM, 0.0027 µmol/min/mg and 0.0014 ± 5e-05 s⁻¹.
